pKd: −log10 of the molar value.
Biological target: canine FcRn-β2M complex (canine)
Assay: SPR, antibody captured on Protein L, soluble FcRn 920 and 460 nM, pH 6.0, 25 C

YTE-b12 canine IgGB (antibody)
pKd: 6.82
